In patent CN116178530A:

What was measured:
Experiment in all cases: cell-based or functional assay
[1] = target: SARS-CoV-2的Alpha突变株(B.1.1.7)假病毒的刺突蛋白 (SARS-CoV-2) (UniProt P0DTC2)
[2] = target: SARS-CoV-2的Delta突变株(B.1.617.2)假病毒的刺突蛋白 (SARS-CoV-2) (UniProt P0DTC2)
[3] = target: SARS-CoV-2的Kappa突变株(B.1.617.1)假病毒的刺突蛋白 (SARS-CoV-2) (UniProt P0DTC2)

Q: Which 假病毒中和 IC50 (荧光素酶报告基因, 293-ACE2细胞) [1] does the source give for CB6 (antibody) here?
A: 0.0557 µg/mL

Q: What about the 假病毒中和 IC50 (荧光素酶报告基因, 293-ACE2细胞) [2] of the same substance?
A: 0.00343 µg/mL

Q: What about the 假病毒中和 IC50 (荧光素酶报告基因, 293-ACE2细胞) [3] of the same substance?
A: 0.0147 µg/mL
